In paper PMC11188837 (mAbs, 2024):
No end group written: not given here. *: point of attachment. FITC = O=C1OC2(c3ccc(O)cc3Oc3cc(O)ccc32)c2ccc(NC(=S)*)cc21; Ahx = NCCCCCC(=O)O

Key:
[1] = target: integrin αVβ8 ectodomain (human) (human, UniProt P06756-1;P26012-1); experiment: fluorescence polarisation
[2] = target: integrin αVβ6 ectodomain (human) (human, UniProt P06756-1;P18564-1); experiment: fluorescence polarisation
integrin αVβ6 ectodomain (human), sequence (P06756 31-992, chain 1 of 2): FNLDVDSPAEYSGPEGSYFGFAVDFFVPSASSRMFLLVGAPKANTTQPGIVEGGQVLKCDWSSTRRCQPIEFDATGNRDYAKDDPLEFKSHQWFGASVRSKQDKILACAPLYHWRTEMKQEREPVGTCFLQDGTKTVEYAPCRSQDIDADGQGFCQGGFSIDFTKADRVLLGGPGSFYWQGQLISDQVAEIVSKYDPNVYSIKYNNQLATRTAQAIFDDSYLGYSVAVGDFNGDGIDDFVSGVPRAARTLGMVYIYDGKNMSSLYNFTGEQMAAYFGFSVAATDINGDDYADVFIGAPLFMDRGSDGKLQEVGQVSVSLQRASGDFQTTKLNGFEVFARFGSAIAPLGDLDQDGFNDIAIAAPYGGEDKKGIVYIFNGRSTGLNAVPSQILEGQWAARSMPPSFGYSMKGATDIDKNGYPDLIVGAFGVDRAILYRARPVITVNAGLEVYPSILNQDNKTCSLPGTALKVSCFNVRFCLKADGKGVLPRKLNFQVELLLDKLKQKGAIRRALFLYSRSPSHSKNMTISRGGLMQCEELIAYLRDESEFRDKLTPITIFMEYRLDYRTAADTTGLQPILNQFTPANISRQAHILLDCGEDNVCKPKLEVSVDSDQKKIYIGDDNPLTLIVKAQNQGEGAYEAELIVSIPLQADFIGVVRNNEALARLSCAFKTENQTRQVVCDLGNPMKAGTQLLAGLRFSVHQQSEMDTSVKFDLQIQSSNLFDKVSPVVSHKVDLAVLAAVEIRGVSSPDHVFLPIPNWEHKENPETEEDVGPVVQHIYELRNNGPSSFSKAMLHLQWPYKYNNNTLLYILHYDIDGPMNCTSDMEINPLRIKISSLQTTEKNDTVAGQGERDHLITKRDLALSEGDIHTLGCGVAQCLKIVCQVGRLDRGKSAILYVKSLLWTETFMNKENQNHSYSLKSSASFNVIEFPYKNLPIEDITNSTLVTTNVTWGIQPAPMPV
integrin αVβ6 ectodomain (human), sequence (P18564 22-709, chain 2 of 2): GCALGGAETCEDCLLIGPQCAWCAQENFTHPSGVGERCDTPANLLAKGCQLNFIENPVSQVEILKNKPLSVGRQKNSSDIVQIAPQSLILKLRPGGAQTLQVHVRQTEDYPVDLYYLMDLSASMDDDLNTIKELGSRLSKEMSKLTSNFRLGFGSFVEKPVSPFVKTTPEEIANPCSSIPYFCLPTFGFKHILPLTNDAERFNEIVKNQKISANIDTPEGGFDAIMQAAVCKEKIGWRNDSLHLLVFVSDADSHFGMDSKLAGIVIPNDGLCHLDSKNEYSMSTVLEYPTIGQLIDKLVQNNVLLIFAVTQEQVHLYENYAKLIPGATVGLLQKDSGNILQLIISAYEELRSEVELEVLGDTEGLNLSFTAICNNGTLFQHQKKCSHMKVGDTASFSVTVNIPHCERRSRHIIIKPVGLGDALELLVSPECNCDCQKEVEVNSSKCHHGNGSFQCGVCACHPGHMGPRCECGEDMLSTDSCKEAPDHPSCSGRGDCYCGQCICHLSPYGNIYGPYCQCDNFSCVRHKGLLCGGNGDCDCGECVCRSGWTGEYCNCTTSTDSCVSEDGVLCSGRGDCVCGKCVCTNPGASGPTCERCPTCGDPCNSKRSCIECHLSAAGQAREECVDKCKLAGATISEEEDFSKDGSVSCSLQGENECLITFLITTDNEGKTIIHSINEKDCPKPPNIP

integrin αVβ8 ectodomain (human), sequence (P06756 31-992, chain 1 of 2): as the sequence (P06756 31-992, chain 1 of 2) above
integrin αVβ8 ectodomain (human), sequence (P26012 43-684, chain 2 of 2): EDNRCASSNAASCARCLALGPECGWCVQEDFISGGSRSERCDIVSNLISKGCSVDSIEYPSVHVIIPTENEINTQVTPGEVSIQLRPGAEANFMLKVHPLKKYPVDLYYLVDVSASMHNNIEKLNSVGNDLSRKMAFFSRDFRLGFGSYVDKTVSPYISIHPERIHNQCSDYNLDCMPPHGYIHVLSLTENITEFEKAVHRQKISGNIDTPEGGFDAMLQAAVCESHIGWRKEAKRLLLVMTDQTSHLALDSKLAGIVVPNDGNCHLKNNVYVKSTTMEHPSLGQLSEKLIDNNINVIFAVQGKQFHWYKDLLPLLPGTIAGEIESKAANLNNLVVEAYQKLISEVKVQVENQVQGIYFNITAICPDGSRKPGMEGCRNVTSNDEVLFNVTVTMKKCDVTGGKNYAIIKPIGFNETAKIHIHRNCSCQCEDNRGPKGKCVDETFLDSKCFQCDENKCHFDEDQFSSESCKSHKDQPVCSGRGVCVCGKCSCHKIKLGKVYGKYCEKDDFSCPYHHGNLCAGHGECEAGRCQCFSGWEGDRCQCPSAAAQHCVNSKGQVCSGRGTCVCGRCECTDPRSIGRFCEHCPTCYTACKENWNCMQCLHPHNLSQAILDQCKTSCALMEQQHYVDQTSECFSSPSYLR

{FITC-Ahx}-GRGDLGRLKK [FITC-labeled aminocaproic acid-GRGDLGRLKK peptide]
binding result [1]: binds
binding result [2]: binds
